The experiment concerns the target T1, chemokine (C-C motif) receptor (CCR)1 (human (endogenous in THP-1 and human monocytes)) (UniProt P32246).
T1 sequence: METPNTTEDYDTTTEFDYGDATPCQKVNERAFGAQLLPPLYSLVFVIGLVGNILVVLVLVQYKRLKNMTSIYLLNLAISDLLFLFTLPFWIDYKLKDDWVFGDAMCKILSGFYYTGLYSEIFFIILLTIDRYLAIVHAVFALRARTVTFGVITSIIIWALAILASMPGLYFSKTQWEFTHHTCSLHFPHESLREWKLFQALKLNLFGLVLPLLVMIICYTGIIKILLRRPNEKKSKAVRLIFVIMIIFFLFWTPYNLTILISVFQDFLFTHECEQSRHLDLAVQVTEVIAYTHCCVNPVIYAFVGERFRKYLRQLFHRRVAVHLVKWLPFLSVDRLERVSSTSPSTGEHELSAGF

B1: CCL23_(25-99) (ligand)
chain: RFHATSADCCISYTPRSIPCSLLESYFETNSECSKPGVIFLTKKGRRFCANPSDKQVQVCMRMLKLDTRIKTRKN
Take B1: the EC50 of CCL23 for Gαi activation (TRUPATH BRET biosensor: Gαi1-Rluc8, Gβ3, Gγ9-GFP2) in HEK293T cells transfected with untagged CCR1 alone was determined as 0.3 nM.

The record behind these values is paper PMC11116815.
